In the DeepSol protein solubility set:

Test: soluble on expression in E. coli; label from the status in PepcDB or PDB records

Sequence | soluble on expression in E. coli
MKFTSLLTAGALASTLVSPAIMAADTASASLSDAQKKEIEKVIHDYLINNPEVLLEASQALQQKQQQNMQQQAQAAIQENAEQVFQGKLTTVGNPKGNVTLVEFFDYQCIHCKKMASTIENLVKKDSGLRVIYKEFPIFGKTSDLASRVALAAGMQGKYQAMHNALITIDKRLDEKTVMDAAKSIGLDMQKLKKDMDSQEVTDILDANRQLAEKLHLMGTPAFIIGSTPDGQYKKGSEISFIPGATSEQSLRELIKKAAGN | not soluble
RKPEEEPQPIDDSSMQFLLAAKDAVSGGIKQNPDFSAQDLAEKMCMSPSQLNRKLTSVVGCSTIGYIQQIKIKLACKLLADESKNISDISIEAGFSDPAYFSRTFKRYMNCSPSQYRQKLLAMPGSDKETV | not soluble
MSLYSTPLKKRIDYDRETFTASASLGGNRLRNRPRDDQNNGKPNLSSRSFLSERKTRKDVLNKYGEAGNTIESELRDVTTHVKISGLTSSEPLQLASEFVQDLSFRDRNTPILDNPDYYSKGLDYNFSDEVGGLGAFTPFQRQQVTNIPDEVLSQVSNTEIKSDMGIFLELNYCWITSDNKLILWNINNSSEYHCIDEIEHTILKVKLVKPSPNTFVSSVENLLIVATLFDIYILTISFNDRTHELNIFNTGLKVNVTGFNVSNIISYERTGQIFFTGATDGVNVWELQYNCSENLFNSKSNKICLTKSNLANLLPTKLIPSIPGGKLIQKVLEGDAGTEEETISQLEVDQSRGVLHTLSTKSIVRSYLITSNGLVGPVLIDAAHIRRGMNALGVKNSPLLSNRAFKIAKIVSISMCENNDLFLAVITTTGVRLYFKGSISRRSIGSLKLDSVKFPPTSISSSLEQNKSFIIGHHPLNTHDTGPLSTQKASSTYINTTCASTIISPGIYFTCVRKRANSGELSKGITNKALLENKEEHKLYVSAPDYGILKNYGKEGHHHHHH | soluble
MKKLVTATTLTAGIGAAIVGLDHGNEADAAEQTQPTNQSTTQSTSGSSANLYTAGQCTWYVYDKVGGNIGSTWGNANNWASAASSAGYTVNNSPEAGSILQSTAGGYGHVAYVENVNSDGSVEVSEMNYNGGPFSVSERTISAGEASSYNYIHLNLEHHHHHH | soluble
MSLAKPIEAHTVSPVNPNAQQTTKTVMNWLAHLPNRTENRVLSGAFGGYSHDTFSMAEADRIRSATGQSPAIYGCDYARGWLETANIEDSIDVSCNGDLMSYWKNGGIPQISLHLANPAFQSGHFKTPITNDQYKKILDSSTVEGKRLNAMLSKIADGLQELENQGVPVLFRPLHEMNGEWFWWGLTSYNQKDNERISLYKQLYKKIYHYMTDTRGLDHLIWVYSPDANRDFKTDFYPGASYVDIVGLDAYFQDAYSINGYDQLTALNKPFAFTEVGPQTANGSFDYSLFINAIKQKYPKTIYFLAWNDEWSAAVNKGASALYHDSWTLNKGEIWNGDSLTPIVEEGHHHHHH | soluble
MTCDDWNSFIQVNIYGKTIEGLQQQGVVLESLLNNIGCSKLWIVEGSMYTSLTNESSTYSESTIEPVVPLSTTLATNKLPRFSTPAVGHSKYNSAKNFTLNLAEKLSEILSDDDKTDKCLENSYQSETSREDVIQDLLEEMVQTVADVDQAPILLSTTLANIGVPRFSTPIKPQNGLDRKFTMNMTERISEIDSNYQGYELFEDSSNDCTTLIPNCQEVESSFYRALPEAASSIVPYQEGKRRSSRRLSTLSSLKETVKIEPTVSKLTKRRRLTSIESSNETMVPHSEPIPLDKDGFSYEQPINEYGDNESFLSAKSLCTEPRSSISEDVKPVLKATDSERTVSIGNHIVDHHPVIELSTEHNTMGEFQYDFDDEDTVLIGNYEEVGTEIDEAEQQNEENSEDDEEDESPIPSTKKVSFAVPVVQRLNKRNEQMNKNHIIKCNFEGCKQILSWKLRYGKQRLLDHAMTHENEKCLVCRTCEYSCSTHPQMKYHYQKMHPEVRCDGFNIQKVFNIEFDEVAIFDLFQKCFGAHSSIIGNIGKPRRYKKCKNSLKNTPEVDNENVDKDSPGPSHDLF | not soluble
MVKIHPDLTTSGAGEETSSPYLTTEQESFTIWMKSLVFNTNGCTVFDSKGNIIYRVDNYNSKSCREVYLMDLSGHVLFTLRRQKFGLFKTWEGYRSSSATVESTTKLEYFRVKNNVFQVPNKDSSSSYRVNAGSCRNDEQYCYKMVTRGSSLAIEDNCGKLLAEVKRKQSINGLKLGDDVLTMMVESQVDHSFIIGLVLAHSLINCIL | soluble
